The record followed here is patent US20150111836A1, “CELLULAR APOBEC3 PROTEINS AND MODULATORS THEREOF FOR REGULATING DNA REPAIR PROCESSES AND TREATING PROLIFERATIVE DISEASES” (priority 2012, published 2015).

In series [1] the test system is H9 cells. Put plainly: Cell cycle analysis following IR. Type of series: cell-based, human. The following applies: H9-shA3G cells, 4 Gy, 20 hours, FIG. 8J. The protocol: PBMC, H9 or puromycin-resistant H9-shRNA cells were irradiated (4 Gy) or mock-irradiated. Following 20 h incubation at 37° C., cells were fixed with methanol for 1 h at −20° C., washed with phosphate buffered saline (PBS), treated with RNase A (50 μg ml ^−1) and stained with PI (5 μg ml^−1). The total cellular DNA content was determined by flow cytometry using FACScan. Cell cycle data were analyzed by the CellQuest Pro software and include 10,000 events gated on singlet cells.

The subject of series [2] is H9 cells. Put plainly: γ-H2AX / RPA foci after IR in A3G knockdown H9 cells. Type of series: cell-based, human. The procedure: (§1) For short hairpin (sh) RNA expression, the following puromycin resistance-encoding vectors were used: A3G-specific pLKO.1.shA3G (TRCN0000052188, clone NM_021822.1-398s1 c1; Sigma-Aldrich), having the nucleic acid sequence 5′-CCGG-[…]-CTCGAG-[…]-TTTTTG-3′, as denoted by SEQ ID NO. 92, and the unrelated control cyprinid herpes virus 3 (CyHV3)-specific pLKO.1.shCtr1. […]. Culture supernatants were collected 48 h post transfection, centrifuged for 10 min at 4,000 rpm to remove cell debris and then for 1 h at 35,000 rpm using a swing SW-41 rotor (Beckman). H9 cells were transduced with the concentrated vectors by spinoculation for 1 h at 1,000 rpm and selected with puromycin (1 μg ml^−1) for 3-10 days post transduction.
(§2) Cells were irradiated by exposure to a ^60Co source producing 1 Gy sec^−1 γ-radiation, or mock-irradiated. Following incubation at 37° C., cells were fixed, attached to glass slides by cytospin, permeabilized with detergent and blocked with 10% normal goat serum. Cells were then incubated with A3G-specific rabbit polyclonal antibody, γ-H2AX-specific monoclonal antibody, or RPA32-specific monoclonal antibody, followed by incubation with goat anti-rabbit Cy-5-conjugated antibody, goat anti-mouse Cy-2-conjugated antibody and DAPI. Slides were mounted and examined by Zeiss LSM 710 confocal microscope. Data were collected sequentially using a ×63 objective with 7-fold averaging at a resolution of […], Z-sections were obtained using an optical slice of less than 1 μm. Data were analyzed with the Zen 2009.

The subject of series [3] is A3G. Put plainly: shRNA-mediated knockdown of A3G expression in H9 cells. Type of series: cell-based, human. To be noted: Western blot, FIG. 8F. The protocol: as §1
Transfected or infected cells were harvested, washed once in PBS, re-suspended in SDS-gel loading buffer and boiled for 10 min. Samples of 5×10^4 cells were analyzed by SDS-12% polyacrylamide gel electrophoresis (SDS-PAGE), followed by transfer of the proteins to polyvinylidene fluoride (PVDF) membrane. HIV-1 proteins were detected by using rabbit anti-Vif and monoclonal anti-Ca-p24 antibodies. A3G protein was identified by rabbit polyclonal anti-A3G.

The target in series [4] is T1, A3G (Homo sapiens, UniProt Q9HC16).
T1 construct: Myc (C); His6 (C); made in house; host or cells: 293T cells (human embryonic kidney), transfected with pcDNA3.1-A3GMyc-His6, Ni-NTA purified
T1 sequence (Q9HC16 whole entry): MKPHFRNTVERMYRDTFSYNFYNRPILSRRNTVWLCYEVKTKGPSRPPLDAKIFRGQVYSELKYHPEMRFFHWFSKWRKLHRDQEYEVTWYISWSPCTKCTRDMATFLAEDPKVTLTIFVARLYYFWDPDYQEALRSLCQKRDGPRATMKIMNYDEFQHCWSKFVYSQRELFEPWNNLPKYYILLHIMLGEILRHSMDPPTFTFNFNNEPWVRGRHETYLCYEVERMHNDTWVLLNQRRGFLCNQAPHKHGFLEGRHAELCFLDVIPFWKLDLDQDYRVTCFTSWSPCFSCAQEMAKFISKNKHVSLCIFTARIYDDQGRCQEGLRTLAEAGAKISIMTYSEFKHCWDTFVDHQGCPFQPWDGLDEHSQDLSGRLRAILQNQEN
The class given is biochemical. The following applies: for inhibition of A3G deaminase activity: peptide at 1 μM, FIG. 15B; for inhibition of A3G mediated deamination by A3G-derived peptides: 1-100 μM, FIG. 19B. The protocol:
Deaminase activity of purified enzyme and virion-associated A3G protein was examined as previously described. Briefly, A3G deamination reactions were performed in a total volume of 10 μl in 25 mM Tris, pH 7.0, and 0.01-1 fmol single-stranded (ss) deoxyoligonucleotide substrate at 37° C. The reaction was terminated by heating to 95° C. for 5 min. One μl of the reaction mixture was used for PCR amplification performed in 20 μl buffer S, using the following program: 1 cycle at 95° C. for 3 min, followed by 30 cycles of annealing at 61° C. for 30 s and denaturing at 94° C. for 30 s. Aliquots of the PCR products (10 μl) were incubated with Eco147I restriction enzyme for 1 h at 37° C. Completion of the restriction reaction was verified by using positive-control substrate containing CCU instead of CCC. Restriction-reaction products were loaded onto 14% gels and separated by PAGE. Gels were stained with SYBR gold nucleic acid stain diluted 1:10,000 in 0.5× Tris-Borate-EDTA buffer (TBE, pH 7.8), visualized by UV light (312 nm), captured by an Olympus C-5050 charge-coupled device (CCD) camera and analyzed by optical density (OD) scan using the TINA2.0 densitometry software. Assessment of A3G entrapped in virions was carried out with concentrated viruses stocks of 3-5 μg of p24/μl) suspended in PBS containing Triton X-100 at final concentration of 0.1% (vv) and 50 μg/ml RNase A (Sigma-Aldrich). Deamination reactions were incubated for 1 h at 37° C.
A panel of 46 HIV-1 Vif-derived 15-mer peptides (obtained through the NIH AIDS Research and Reference Reagent Program) were screened for inhibition of purified A3G-His6 catalytic activity in a standard cytidine deamination assay. […] A fluorescein-conjugated peptide (kindly provided by Dr. Assaf Friedler) was used to assess the peptide uptake by H9 cells.

Series [5] deals with H9 cells. The series can be described thus: DSB repair (γ-H2AX staining) in irradiated H9 cells pre-incubated with Vif peptides. Type of series: cell-based, human. To be noted: 2 h pre-incubation with 100 μM peptide, 4 Gy IR, stained after 8 h. The protocol: as §2
A panel of 46 HIV-1 Vif-derived 15-mer peptides (obtained through the NIH AIDS Research and Reference Reagent Program) were screened for inhibition of purified A3G-His6 catalytic activity in a standard cytidine deamination assay. The inhibitory peptide Vif25-39 corresponds to amino acids 25-39 in HIV-1 HXBII Vif. A fluorescein-conjugated peptide (kindly provided by Dr. Assaf Friedler) was used to assess the peptide uptake by H9 cells. […]

Where a SMILES comes first, the peptide text is derived from it. The star is where a group is joined. Cbz = O=C(OCc1ccccc1)*; CH2F = FC* Where only a bound is given, the exact number is not on record here.

Regarding “5′-CCGG-GCCAGGTGTATTCCGAACTTA-CTCGAG-TAAGTTCGGAATACACCTGGC-TTTTTG-3′ (DNA CCGGGCCAGGTGTATTCCGAACTTACTCGAGTAAGTTCGGAATACACCTGGCTTTTTG; expressed or natural sequence) [shA3G, A3G-specific shRNA vector TRCN0000052188]”, the “G2M arrest following IR” value in the series on H9 cells [1] was “did not undergo G2M arrest”. The “RPA recruitment to damage-induced foci following IR” value with H9 cells [2] (H9-shA3G cells, 4 Gy, 2 h, FIG. 10A) was “did not form such foci”. In addition, the “γ-H2AX foci in the hours following IR” value in the series on H9 cells [2] (H9-shA3G cells, 4 Gy, up to 8 hours, FIG. 8G) was “did not decrease”. In addition, the “reduction of A3G expression compared to H9-shCtr1 cells” value in the series on A3G [3] is 70-80%. Regarding `COC(=O)C[C@H](NC(=O)[C@H](C)NC(=O)[C@@H](NC(=O)OCc1ccccc1)C(C)C)C(=O)CF` [z-VAD-fmk, reference compound] (Cbz-Val-Ala-Asp(OMe)-CH2F), the “DSB incidence in the presence of caspase inhibitor” value in the series with H9 cells [2] (20 μM, 1 hour pre-incubation, γ-H2AX 6 hours after IR, FIG. 8H) is listed as “comparable with cells treated with mock”. For the compound “DCFSESAIRNAILGH (Viral - Vif peptide) [Vif113-127]”, in the series with A3G [4], the “inhibition of A3G deaminase activity” value is “inhibited”. “DLADQLIHLYYFDCF (Viral - Vif peptide) [Vif101-115]”: the “inhibition of A3G deaminase activity” value in the series with A3G [4] is recorded as “inhibited”. The same measure, in the same setting: the entry for “GWFYRHHYESTHPRI (Viral - Vif peptide) [Vif37-51]” is “inhibited”. Turning to “IHLYYFDCF (Viral - Vif peptide) [SEQ ID NO. 71]”, in the series with A3G [4] (0.001 to 10 μM, FIG. 19A), the “inhibition of A3G mediated deamination by short Vif- and A3F-derived peptides” value is “distinct inhibitory pattern”.

IVWQVDRMRIRTWKS [Vif9-23]: the “inhibition of A3G deaminase activity” value in the series with A3G [4] is recorded as “inhibited”. For “RMHNDTWVLLNQRRG (listed as Homo sapiens) [SEQ ID NO. 84]”, the “inhibition of A3G mediated deamination by A3G-derived peptides” value in the series with A3G [4] was “marked inhibitory effect”. On to “WRKKRYSTQVDPDLA (Viral - Vif peptide) [Vif89-103, control peptide]”, for which the “cells containing DSBs” value with H9 cells [5] is reported as below 8%. Besides, the “inhibition of A3G-mediated deamination” value with A3G [4] (peptide at 100 μM) is “did not inhibit”.

In the case of “WVRGRHETYLCYEVE (listed as Homo sapiens) [SEQ ID NO. 83]”, the “inhibition of A3G mediated deamination by A3G-derived peptides” value in the series with A3G [4] is recorded as “marked inhibitory effect”.
